Results reported in patent publication US20020102262A1, “Collagen binding protein compositions and methods of use” (priority 1996, published 2002).
Numbering of substitutions follows the chain as printed. “And” between values parts separate entries of the source, which are not always exact repeats. Identical values can stand only once.

B1: Y^233→A (protein)
chain: ARDISSTNVTDLTVSPSKIEDGGKTTVKMTFDDKNGKIQNGDMIKVAWPTSGTVKIEGYSKTVPLTVKGEQVGQAVITPDGATITFNDKVEKLSDVSGFAEFEVQGRNLTQTNTSDDKVATITSGNKSTNVTVHKSEAGTSSVFYYKTGDMLPEDTTHVRWFLNINNEKSYVSKDITIKDQIQGGQQLDLSTLNINVTGTHSNAYSGQSAITDFEKAFPGSKITVDNTKNTIDVTIPQGYGSYNSFSINYKTKITNEQQKEFVNNSQAWYQEHGKEEVNGKSFNHTVHNINANAGIEGTVKGELKVLKQDKDTKAPIANVKFKLSKKDGSVVKDNQKEIEIITDANGIANIKALPSGDYILKEIEAPRPYTFDKDKEYPFTMKDTDNQGYFTTIENAKAIEKTKDVSAQKVWEGTQKVKPTIYFKLYKQDDNQNTTPVDKAEIKKLEDGTTKVTWSNLPENDKNGKAIKYLVKEVNAQGEDTTPEGYTKKENGLVVTNTE
B2: double mutant (protein)
chain: B1 chain with N203A
B3: 212Q→A (protein)
chain: ITSGNKSTNVTVHKSEAGTSSVFYYKTGDMLPEDTTHVRWFLNINNEKSYVSKDITIKDQIAGGQQLDLSTLNINVTGTHSNYYSGQSAITDFEKAFPGSKITVDNTKNTIDVTIPQGYGSYNSFSINYKTKITNEQQKEFVNNSQAWYQEHGKEEVNGKSFNHTVHN
B4: 225N→K (protein)
chain: B3 chain with A62Q, N75K
B5: 233Y→A (protein)
chain: B3 chain with A62Q, Y83A
B6: 189R→A (protein)
chain: B3 chain with R39A, A62Q
B7: 221T→K (protein)
chain: B3 chain with A62Q, T71K
B8: 232N→A (protein)
chain: B3 chain with A62Q, N82A
B9: 278N→K (protein)
chain: B3 chain with A62Q, N128K
B10: 193N→K (protein)
chain: B3 chain with N43K, A62Q
B11: 175Y→K (protein)
chain: B3 chain with Y25K, A62Q
B12: 191F→A (protein)
chain: B3 chain with F41A, A62Q
B13: 223N→K (protein)
chain: B3 chain with A62Q, N73K

These molecules were tested on S. aureus strain Phillips (assay: Mouse sepsis model, active immunization, intravenous challenge with S. aureus expressing CBP). Conditions: 100μg/mouse on days -31, -18, -7; 2.8×10^7 cfu/mouse i.v. day 0; end day 14.
Format: in vivo, mice
Text: Gram-positive bacteria related sepsis is on the increase. In fact between one-third and one-half of all cases of sepsis are caused by gram-positive bacteria, particularly S. aureus and S. epidermidis. In the United States, it can be estimated that over 200,000 patients will develop gram-positive related sepsis this year. […] Mice were immunized subcutaneously with either M55 or a control antigen (bovine serum albumin) and then challenged intravenously with S. aureus. Eighty-three percent (35/42) of the mice immunized with M55 survived compared to only 27% of the BSA immunized mice (12/45). This is a compilation of 3 separate studies.
Day -31: 100μg/mouse of a CBP Epitope (i.e. M17, M31, or M55) or BSA emulsified with Freund's Complete adjuvant (Difco Laboratories) as a control.
Day -18: 100μg/mouse of a CBP Epitope (ie. M17, M31, or M55) or BSA dissolved in sterile phosphate buffered saline (PBS)
Day -7: 100μg/mouse of a CBP Epitope (i.e. M17, M31, or M55) or BSA dissolved in PBS
Day 0: inoculate intravenously S. aureus strain Phillips (which expresses CBP) (Dose: 2.8×10^7 cfu/mouse)
Day 14: end of study; all surviving mice were euthanized.
With “M17: recombinant S. aureus Col-binding MSCRAMM derivative, amino acids 151-297 of full length CBP (SEQ ID NO:2)” the mice died/total was 10/15. “M31: recombinant S. aureus Col-binding MSCRAMM derivative, amino acids 61-343 of full length CBP (SEQ ID NO:4)” was tested, and the mice died/total was 12/14.

Same assay, conditions: in words
For “full-length sequence: previously-identified full-length S. aureus CBP [reference compound]”, the protection against sepsis was “does not confer protection against sepsis”.

What follows are molecules tested against immobilized type II Col (Homo sapiens, UniProt P02458) (assay: BIAcore analysis of CBD(30-529) and mutants on immobilized type II Col). Conditions: not given.
Chain of immobilized type II Col (P02458 182-1241 limits assumed): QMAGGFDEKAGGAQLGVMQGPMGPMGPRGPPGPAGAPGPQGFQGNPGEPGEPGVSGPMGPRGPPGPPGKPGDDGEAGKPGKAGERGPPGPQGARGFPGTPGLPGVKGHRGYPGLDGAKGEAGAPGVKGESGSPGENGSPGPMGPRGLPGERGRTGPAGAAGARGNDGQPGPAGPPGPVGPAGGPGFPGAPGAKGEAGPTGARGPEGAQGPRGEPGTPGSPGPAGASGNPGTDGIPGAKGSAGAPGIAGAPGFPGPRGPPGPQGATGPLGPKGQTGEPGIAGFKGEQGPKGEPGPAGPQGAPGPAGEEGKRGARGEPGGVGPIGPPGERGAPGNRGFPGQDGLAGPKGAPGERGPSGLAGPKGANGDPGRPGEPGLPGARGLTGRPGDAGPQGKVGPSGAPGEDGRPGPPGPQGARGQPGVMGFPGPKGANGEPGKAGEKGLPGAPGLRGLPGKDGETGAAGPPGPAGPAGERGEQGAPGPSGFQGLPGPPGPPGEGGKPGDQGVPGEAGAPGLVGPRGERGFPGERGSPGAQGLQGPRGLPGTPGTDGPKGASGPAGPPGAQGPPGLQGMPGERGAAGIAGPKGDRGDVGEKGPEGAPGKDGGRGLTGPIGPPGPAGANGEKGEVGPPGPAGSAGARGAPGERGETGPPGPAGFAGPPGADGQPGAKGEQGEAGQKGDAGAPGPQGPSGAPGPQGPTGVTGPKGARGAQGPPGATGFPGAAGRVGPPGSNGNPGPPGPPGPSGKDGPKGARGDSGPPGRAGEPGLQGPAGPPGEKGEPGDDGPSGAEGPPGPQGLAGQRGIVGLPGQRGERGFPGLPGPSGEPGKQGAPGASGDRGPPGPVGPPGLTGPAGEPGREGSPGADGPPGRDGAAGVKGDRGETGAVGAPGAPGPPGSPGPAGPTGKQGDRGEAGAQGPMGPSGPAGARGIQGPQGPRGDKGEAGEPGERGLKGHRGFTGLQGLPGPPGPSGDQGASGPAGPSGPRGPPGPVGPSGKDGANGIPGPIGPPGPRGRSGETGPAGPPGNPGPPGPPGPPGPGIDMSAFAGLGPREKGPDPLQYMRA
Format: binding
Text: The importance of amino acid residues Asn^232 and Tyr ^33 in the MSCRAMM for Col binding was examined by creating specific mutants of CBD (30-529) and characterizing the interactions of these mutants with immobilized type II Col using the BlAcore. In the mutations made, the identified amino acid residues were replaced individually, (N^232 →A, Y^233 →A) or as a pair, (N^232 →A:Y^233→A) with alanine, a residue that is not expected to interfere with the existing secondary structure. The corresponding base changes were made using overlap extension PCR™ as described and the sequence changes confirmed experimentally. The recombinant proteins containing the mutations were purified to homogeneity by metal ion chelating chromatography.
True equilibrium was not obtained during the injection time period due to the slow dissociation rate (koff). […] The dissociation phase gives information about the koff, and this rate is independent of the number of binding sites, analyte concentration, and flow rate. […] The association phase contains the information to determine the association rate koff the interaction, but it is also influenced by the dissociation rate, the number of binding sites for each interaction, and the concentration of the analyte. Because of the complexity of this interaction and the absence of measurable equilibrium data, it was not possible to determine the binding constant (KD), apparent binding ratio (BRapp), and kon.
For B1, the “affinity and apparent binding ratio compared to wild type” value was “even more significant decreasesin affinity and apparent binding ratio”. With B2 the “affinity and apparent binding ratio compared to wild type” value was “even more significant decreasesin affinity and apparent binding ratio”.

Same assay, conditions: Scatchard analysis or Equation 1
In the case of B2, the “apparent binding ratio (BRapp)” value is reported as “approximately two to three high affinity sites”.

The molecules below were run against type II Col (collagen type II) (assay: peptide (5 µM) incubated with ^125I-Col before addition of S. aureus cells). Conditions: not given.
Chain of type II Col (collagen type II) (P02459 182-1241): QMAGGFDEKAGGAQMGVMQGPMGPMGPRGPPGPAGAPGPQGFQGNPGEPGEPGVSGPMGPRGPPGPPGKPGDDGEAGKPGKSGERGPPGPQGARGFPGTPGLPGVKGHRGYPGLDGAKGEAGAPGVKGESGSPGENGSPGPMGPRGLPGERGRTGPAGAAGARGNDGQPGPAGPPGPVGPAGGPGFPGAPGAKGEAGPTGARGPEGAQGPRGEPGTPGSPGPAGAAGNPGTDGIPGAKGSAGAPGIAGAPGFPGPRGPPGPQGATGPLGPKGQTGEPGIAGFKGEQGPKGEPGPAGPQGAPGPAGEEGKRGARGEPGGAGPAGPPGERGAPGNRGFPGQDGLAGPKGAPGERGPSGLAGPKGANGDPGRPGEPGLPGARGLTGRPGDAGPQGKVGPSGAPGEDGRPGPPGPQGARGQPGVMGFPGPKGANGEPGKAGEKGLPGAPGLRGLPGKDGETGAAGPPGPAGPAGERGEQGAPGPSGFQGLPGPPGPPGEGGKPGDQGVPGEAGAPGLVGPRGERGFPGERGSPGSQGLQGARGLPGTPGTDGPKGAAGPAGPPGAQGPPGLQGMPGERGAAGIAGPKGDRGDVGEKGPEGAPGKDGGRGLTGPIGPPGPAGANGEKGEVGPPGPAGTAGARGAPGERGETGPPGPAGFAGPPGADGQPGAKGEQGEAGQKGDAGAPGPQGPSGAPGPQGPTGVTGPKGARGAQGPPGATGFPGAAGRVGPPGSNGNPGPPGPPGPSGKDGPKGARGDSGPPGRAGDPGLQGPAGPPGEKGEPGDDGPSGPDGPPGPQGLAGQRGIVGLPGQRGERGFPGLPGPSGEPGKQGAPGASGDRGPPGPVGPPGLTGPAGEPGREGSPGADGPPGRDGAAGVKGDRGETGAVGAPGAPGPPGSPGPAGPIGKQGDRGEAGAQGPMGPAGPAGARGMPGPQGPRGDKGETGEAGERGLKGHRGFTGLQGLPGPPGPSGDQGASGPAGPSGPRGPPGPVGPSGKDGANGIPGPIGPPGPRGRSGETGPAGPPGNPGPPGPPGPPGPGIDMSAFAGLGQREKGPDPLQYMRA
“Peptide CBD4 (from UniProt Q53654 209-233)” was tested, and the percent inhibition of ^125I-Col binding to S. aureus was > 50%.

Each molecule was assayed against type II Col (collagen type II) (assay: BIAcore, immobilized type II Col; three-component dissociation, the slowest component). Conditions: not given.
“CBD (30-529), recombinant S. aureus Col MSCRAMM fragment (wild type) (from UniProt Q53654 30-529)” showed a koff of 0.0005 s⁻¹.

The molecules below were run against type II Col (collagen type II) (assay: peptide at 10 µM, inhibition of ^125I-labeled Col binding to S. aureus cells). Conditions: not given.
“Peptide CBD4 (from UniProt Q53654 209-233)” gave a percent inhibition of ^125I-labeled Col binding to S. aureus of 76%.

These molecules were tested against Col type II (Homo sapiens, UniProt P02458) (assay: Biosensor analysis of CBD(151-318) and single-site mutants binding to Col type II). Conditions: approximate binding ratio.
Chain of Col type II (P02458 182-1241 limits assumed): as the sequence (P02458 182-1241 limits assumed) above
Text: Mutational analysis was used to evaluate the putative binding site defined by the docking search. […] The surface area covered by the docked Col is about 1630 Å^2, which is 22% of the total solvent-accessible surface of CBD(172-318). […] Nine of these residues were mutated as well as two additional residues outside the putative binding region. The single-site lysine and alanine mutations were designed to disrupt the surface of the putative Col binding groove of wild type CBD(15 1-318). […] The MSCRAMM recognizes generic triple-helical structures (Speziale et al., 1986; Sakakibara et al., 1973; Heidemann and Roth, 1982), therefore, changes in the low-affinity dissociation constants were used to evaluate alterations in the binding of the mutant proteins (House-Pompeo et al., 1994).
For B3, the BR was 10. B4 gave a BR of 10. B5 was tested, and the BR was 11. For B6, the BR was >13. B7 showed a BR of 9. With B8 the BR was 12. Molecule B9 has a BR of 9. In the case of B10, the BR is reported as 12. For B11, the BR was >20. B12 showed a BR of 10. With B13 the BR was 10.

Same assay, conditions: in words
In the case of B3, the “Col-binding activity / affinity for Col compared with wild type CBD(151-318)” value is reported as “did not differ significantly from that of wild type CBD(151-318)”. With B4 the “Col-binding activity / affinity for Col compared with wild type CBD(151-318)” value was “did not differ significantly from that of wild type CBD(151-318)”. B7 was tested, and the “Col-binding activity / affinity for Col compared with wild type CBD(151-318)” value was “did not differ significantly from that of wild type CBD(151-318)”. In the case of B8, the “Col-binding activity / affinity for Col compared with wild type CBD(151-318)” value is reported as “did not differ significantly from that of wild type CBD(151-318)”.

These molecules were tested against type II Col (collagen type II) (assay: biosensor analysis, equilibrium response; protein passed over covalently immobilized type II Col). Conditions: not given.
“CBD(151-318) 212Q→A (from UniProt Q53654 151-318)” gave a BR (approximate binding ratio) of 10. For “CBD(151-318) 225N→K (from UniProt Q53654 151-318)”, the BR (approximate binding ratio) was 10. With “CBD(151-318) 278N→K (from UniProt Q53654 151-318)” the BR (approximate binding ratio) was 9. In the case of “CBD(151-318) 193N→K (from UniProt Q53654 151-318)”, the BR (approximate binding ratio) is reported as 12. For “CBD(151-318) 221T→K (from UniProt Q53654 151-318)”, the BR (approximate binding ratio) was 9. For “CBD(151-318) 175Y→K (from UniProt Q53654 151-318)”, the BR (approximate binding ratio) was > 20. In the case of “CBD(151-318) 191F→A (from UniProt Q53654 151-318)”, the BR (approximate binding ratio) is reported as 10. Molecule “CBD(151-318) 223N→K (from UniProt Q53654 151-318)” has a BR (approximate binding ratio) of 10. Work on “CBD(151-318) 233Y→A (from UniProt Q53654 151-318)” yielded a BR (approximate binding ratio) of 11. With “CBD(151-318) 232N→A (from UniProt Q53654 151-318)” the BR (approximate binding ratio) was 12. “CBD(151-318) 189R→A (from UniProt Q53654 151-318)” was tested, and the BR (approximate binding ratio) was > 13. Molecule “CBD(151-318), recombinant Col-binding domain of the S. aureus CBP (wild type) (from UniProt Q53654 151-318)” has a BR (approximate binding ratio) of 10.

The molecules below were run against type II Col (collagen type II) (assay: BIAcore, immobilized type II Col; Scatchard analysis or Equation 1). Conditions: not given.
In the case of “CBD (30-529) N^232→A:Y^233→A (from UniProt Q53654 30-529)”, the BRapp (apparent binding ratio) is reported as 2 sites and 3 sites.

These molecules were tested against type II Col (collagen type II) (assay: BIAcore, immobilized type II Col; three-component dissociation, the two fastest components). Conditions: not given.
“CBD (30-529), recombinant S. aureus Col MSCRAMM fragment (wild type) (from UniProt Q53654 30-529)” was tested, and the koff was > 0.01 s⁻¹.
